# Values of other authors, collected in publication PMC9897510.
# Key:
# [1] = target: FhuA (Escherichia coli) (UniProt P06971)
# [2] = target: atrial natriuretic factor receptor (UniProt P16066)
# [3] = target: FOXM1c (Homo sapiens) (UniProt Q08050)
# [4] = target: FOXM1b (Homo sapiens) (UniProt Q08050)
# UniProt P06971, sequence (P06971 34-747): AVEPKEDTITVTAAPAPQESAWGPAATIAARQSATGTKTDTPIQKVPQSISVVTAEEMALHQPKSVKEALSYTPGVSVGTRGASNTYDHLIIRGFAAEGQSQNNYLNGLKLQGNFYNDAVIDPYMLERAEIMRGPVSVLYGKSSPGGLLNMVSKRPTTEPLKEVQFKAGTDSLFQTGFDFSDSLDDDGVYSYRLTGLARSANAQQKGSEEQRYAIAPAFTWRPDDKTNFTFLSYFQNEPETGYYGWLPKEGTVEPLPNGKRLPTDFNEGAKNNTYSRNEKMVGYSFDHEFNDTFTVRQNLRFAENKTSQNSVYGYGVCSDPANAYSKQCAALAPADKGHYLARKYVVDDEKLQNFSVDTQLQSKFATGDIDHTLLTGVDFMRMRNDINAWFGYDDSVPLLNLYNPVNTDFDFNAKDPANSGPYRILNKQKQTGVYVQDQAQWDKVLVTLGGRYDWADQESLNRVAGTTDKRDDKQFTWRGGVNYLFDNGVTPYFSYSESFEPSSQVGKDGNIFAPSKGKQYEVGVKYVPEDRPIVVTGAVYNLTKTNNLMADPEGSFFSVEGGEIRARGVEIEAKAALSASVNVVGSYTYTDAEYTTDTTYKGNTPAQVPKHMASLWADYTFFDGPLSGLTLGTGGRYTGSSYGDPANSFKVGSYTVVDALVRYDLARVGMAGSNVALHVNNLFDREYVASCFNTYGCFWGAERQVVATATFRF
# UniProt P16066, sequence (P16066 33-1061): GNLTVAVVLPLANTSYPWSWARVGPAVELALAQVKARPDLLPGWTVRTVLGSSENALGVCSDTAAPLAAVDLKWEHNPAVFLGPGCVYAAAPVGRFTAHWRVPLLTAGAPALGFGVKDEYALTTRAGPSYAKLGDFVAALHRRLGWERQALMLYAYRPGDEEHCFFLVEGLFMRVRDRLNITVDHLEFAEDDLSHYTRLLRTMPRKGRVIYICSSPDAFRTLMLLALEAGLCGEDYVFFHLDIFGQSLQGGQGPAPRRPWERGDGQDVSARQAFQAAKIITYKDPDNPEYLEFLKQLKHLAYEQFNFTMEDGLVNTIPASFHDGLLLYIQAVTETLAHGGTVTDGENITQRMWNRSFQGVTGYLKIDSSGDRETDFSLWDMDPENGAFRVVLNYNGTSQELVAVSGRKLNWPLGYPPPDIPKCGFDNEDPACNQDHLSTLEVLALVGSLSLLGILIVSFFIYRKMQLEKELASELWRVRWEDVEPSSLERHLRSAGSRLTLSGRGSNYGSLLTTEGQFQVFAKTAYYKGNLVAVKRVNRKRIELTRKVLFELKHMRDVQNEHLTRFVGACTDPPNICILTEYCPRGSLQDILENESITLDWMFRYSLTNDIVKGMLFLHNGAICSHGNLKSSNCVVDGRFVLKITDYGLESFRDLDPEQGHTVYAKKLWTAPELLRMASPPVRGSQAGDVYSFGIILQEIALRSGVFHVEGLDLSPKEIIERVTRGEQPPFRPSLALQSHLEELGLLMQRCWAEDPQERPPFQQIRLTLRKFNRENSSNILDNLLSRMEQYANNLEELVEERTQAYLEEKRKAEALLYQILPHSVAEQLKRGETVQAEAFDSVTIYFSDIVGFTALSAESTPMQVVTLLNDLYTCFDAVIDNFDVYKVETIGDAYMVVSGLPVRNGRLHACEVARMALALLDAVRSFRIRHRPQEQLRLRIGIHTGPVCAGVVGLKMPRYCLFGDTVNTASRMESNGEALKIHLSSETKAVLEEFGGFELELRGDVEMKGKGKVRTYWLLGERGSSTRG
substance,measurement,setting,value
Microcin J25 (from UniProt Q9X2V7),Kd,[1],1.2 µM
anantin (from UniProt Q7M0J9),Kd,[2],0.6 µM
thiostrepton (from UniProt P0C8P8),Ki,[3],11 µM
same,Ki,[4],31 µM
